Source: the supplement of paper PMC7877785
± gives the uncertainty stated by the source.

Experiment: self-splicing fitness, log relative to wild type (ln ratio); higher = more splicing; Tetrahymena group I intron in knt gene, E. coli kanamycin selection, DiMSum; sequences stand for … in CUCUCU…GGAGGGAAAAGUUAUCAGGCAUGCACCUGGUAGCUAGUCUUUAAACCAAUAGAUUGCAUCGGUUUAAAAGGCAAGACCGUCAAAUUGCGGGAAAGGGGUCAACAGCCGUUCAGUACCAAGUCUCAGGGGAAACUUUGAGAUGGCCUUGCAAAGGGUAUGGUAAUAAGCUGACGGACAUGGUCCUAACCACGCAGCCAAGUCCUAAGUCAACAGAUCUUCUGUUGAUAUGGAUGCAGUUCACAGACUAAAUGUCGGUCGGGGAAGAUGUAUUCUUCUCAUAAGAUAUAGUCGGACCUCUCCUUAAUGGGAGCUAGCGGAUGAAGUGAUGCAACACUGGAGCCGCUGGGAACUAAUUUGUAUGCGAAAGUAUAUUGAUUAGUUUUGGAGUACUCGUGGUCG
Summary of the method: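 The eight P1ex-region nucleotides of an intron in the knt kanamycin-resistance gene on pET-22b(+) were all randomised and the library put into E. coli BL21(DE3). Six replicate transformations were grown overnight at 37°C or 30°C on LB agar with or without 25 μg/mL kanamycin, together with 100 μg/mL carbenicillin, 50 μM IPTG and 0.2% rhamnose. Colonies were pooled and amplicon-sequenced on an Illumina HiSeq 2500. Fitness from DiMSum is the error-weighted combination of wild-type-normalised replicate fold changes, kanamycin over none.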

Sequence | self-splicing fitness (ln) (30 °C) | self-splicing fitness (ln) (37 °C)
CAAUAGCAAUAUUACGGAUG | -1.51 ± 0.08 | -1.12 ± 0.088
CAAUAGCAAUAUUACGGCAU | -3.03 ± 0.17 | -1.32 ± 0.26
CAAUAGCAAUAUUACGGCGA | -3.93 ± 0.4 | -2.03 ± 0.24
CAAUAGCAAUAUUACGGGAC | -2.83 ± 0.34 | -2.63 ± 0.27
CAAUAGCAAUAUUACGGGUA | -3.9 ± 0.21 | -3.12 ± 0.18
CAAUAGCAAUAUUACGGUCG | -0.0402 ± 0.066 | 0.0285 ± 0.087
CAAUAGCAAUAUUACGGUCU | -3.24 ± 0.31 | -3.15 ± 0.35
CAAUAGCAAUAUUACGGUGU | -3.14 ± 0.16 | -2.27 ± 0.18
CAAUAGCAAUAUUACGUAGA | -3.48 ± 0.16 | -2.37 ± 0.17
CAAUAGCAAUAUUACGUAGU | -3.31 ± 0.29 | -2.44 ± 0.22
CAAUAGCAAUAUUACGUGAA | -4.02 ± 0.37 | -1.7 ± 0.22
CAAUAGCAAUAUUACGUGCU |  | -2.65 ± 0.24
CAAUAGCAAUAUUACGUUAC |  | -3.23 ± 0.39
CAAUAGCAAUAUUACGUUGG | -1.9 ± 0.099 | -1.3 ± 0.11
CACAAGCAAUAUUACGAAGG | -1.45 ± 0.096 | -0.993 ± 0.12
CACAAGCAAUAUUACGAAUG | -1.79 ± 0.074 | -1.2 ± 0.073
CACAAGCAAUAUUACGACCU | -1.71 ± 0.19 | -2.1 ± 0.2
CACAAGCAAUAUUACGCCCA | -0.966 ± 0.091 | 0.114 ± 0.09
CACAAGCAAUAUUACGCGUA | -1.64 ± 0.072 | -0.625 ± 0.067
CACAAGCAAUAUUACGGAAG | -0.736 ± 0.055 | -0.887 ± 0.072
CACAAGCAAUAUUACGGGCA | -3.05 ± 0.14 | -1.39 ± 0.099
CACAAGCAAUAUUACGGUCC | -2.99 ± 0.32 | -1.99 ± 0.27
CACAAGCAAUAUUACGUAAC | -2.43 ± 0.095 | -0.662 ± 0.14
CACAAGCAAUAUUACGUACC | -3.9 ± 0.21 | -1.36 ± 0.14
CACAAGCAAUAUUACGUCGG | -0.785 ± 0.05 | -0.422 ± 0.063

Sequence | self-splicing fitness (ln) (30 °C) | self-splicing fitness (ln) (37 °C)
CACAAGCAAUAUUACGUUCU | -2.84 ± 0.12 | -2.42 ± 0.12
CACAAGCAAUAUUACGUUGU | -3.81 ± 0.16 | -2.39 ± 0.13
CACCAGCAAUAUUACGAAAG | -0.231 ± 0.041 | -0.141 ± 0.064
CACCAGCAAUAUUACGAAAU | -4.11 ± 0.18 | -2.29 ± 0.16
CACCAGCAAUAUUACGAACU | -3.98 ± 0.2 | -2.05 ± 0.17
CACCAGCAAUAUUACGAGCA | -3.54 ± 0.16 | -1.55 ± 0.13
CACCAGCAAUAUUACGAUCA | -2.75 ± 0.15 | -1.43 ± 0.16
CACCAGCAAUAUUACGAUCG | -0.326 ± 0.059 | 0.608 ± 0.085
CACCAGCAAUAUUACGCAUA | -2.57 ± 0.12 | -1.27 ± 0.1
CACCAGCAAUAUUACGCCAU | -3.39 ± 0.31 | -2.03 ± 0.29
CACCAGCAAUAUUACGCCGC | -3.35 ± 0.2 | -2.43 ± 0.29
CACCAGCAAUAUUACGCUCC | -3.91 ± 0.21 | -2.11 ± 0.33
CACCAGCAAUAUUACGGCCG | 0.194 ± 0.066 | 0.251 ± 0.087
CACCAGCAAUAUUACGGGGA | -1.7 ± 0.062 | -0.764 ± 0.067
CACCAGCAAUAUUACGGGUU | -1.82 ± 0.056 | -1.68 ± 0.081
CACCAGCAAUAUUACGGUAA | -1.18 ± 0.056 | -0.566 ± 0.061
CACCAGCAAUAUUACGGUAU | -2.42 ± 0.072 | -1.03 ± 0.067
CACCAGCAAUAUUACGGUUG | -2.85 ± 0.094 | -1.04 ± 0.11
CACCAGCAAUAUUACGUACG | 0.0448 ± 0.04 | 0.848 ± 0.062
CACCAGCAAUAUUACGUCAU | -4.12 ± 0.17 | -2.27 ± 0.14
CACCAGCAAUAUUACGUCCU | -3.31 ± 0.13 | -1.87 ± 0.14
CACCAGCAAUAUUACGUUGC | -3.93 ± 0.17 | -3.5 ± 0.24
CACGAGCAAUAUUACGAACA |  | -2.04 ± 0.47
CACGAGCAAUAUUACGAAUA | -2.08 ± 0.12 | -2.23 ± 0.16
CACGAGCAAUAUUACGACUU | -4.4 ± 0.34 | -0.766 ± 0.13

Sequence | self-splicing fitness (ln) (30 °C) | self-splicing fitness (ln) (37 °C)
CACGAGCAAUAUUACGAGUU | -4.28 ± 0.18 | -2.2 ± 0.12
CACGAGCAAUAUUACGAUGG | -1.81 ± 0.096 | -1.45 ± 0.14
CACGAGCAAUAUUACGCAGA |  | -2.28 ± 0.26
CACGAGCAAUAUUACGCCGG | -3.41 ± 0.22 | -2.6 ± 0.3
CACGAGCAAUAUUACGCCUA |  | -2.24 ± 0.45
CACGAGCAAUAUUACGCGCA | -3.24 ± 0.18 | -2.52 ± 0.14
CACGAGCAAUAUUACGGAUA | -2.98 ± 0.27 | -2.06 ± 0.24
CACGAGCAAUAUUACGGCAG | -1.03 ± 0.11 | -0.837 ± 0.14
CACGAGCAAUAUUACGGCCA |  | -2.79 ± 0.32
CACGAGCAAUAUUACGGCGU | -2.68 ± 0.21 | -2.53 ± 0.26
CACGAGCAAUAUUACGGCUA | -2.19 ± 0.22 | -1.41 ± 0.17
CACGAGCAAUAUUACGGGAG | -3.53 ± 0.21 | -2.37 ± 0.18
CACGAGCAAUAUUACGGGGA | -3.15 ± 0.12 | -2.51 ± 0.13
CACGAGCAAUAUUACGGUAU | -3.04 ± 0.23 | -2.25 ± 0.22
CACGAGCAAUAUUACGGUCC | -4.36 ± 0.28 | -3.16 ± 0.33
CACGAGCAAUAUUACGGUGU | -3.93 ± 0.22 | -2.33 ± 0.21
CACGAGCAAUAUUACGGUUA | -2.76 ± 0.17 | -2.48 ± 0.16
CACGAGCAAUAUUACGUCCC | -1.45 ± 0.25 | 
CACGAGCAAUAUUACGUCGC | -2.82 ± 0.33 | -2.69 ± 0.41
CACGAGCAAUAUUACGUGCU | -2.25 ± 0.12 | -2.99 ± 0.22
CACGAGCAAUAUUACGUGUU | -2.98 ± 0.1 | -2.26 ± 0.15
CACGAGCAAUAUUACGUUGA | -3.06 ± 0.17 | -2.47 ± 0.18
CACGAGCAAUAUUACGUUUA | -2.88 ± 0.18 | -2.52 ± 0.19
CACGAGCAAUAUUACGUUUC | -3.42 ± 0.17 | -2.42 ± 0.22
CACGAGCAAUAUUACGUUUU | -3.49 ± 0.15 | -2.94 ± 0.18

Sequence | self-splicing fitness (ln) (30 °C) | self-splicing fitness (ln) (37 °C)
CACUAGCAAUAUUACGAACU | -2.65 ± 0.1 | -1.99 ± 0.15
CACUAGCAAUAUUACGACUA | -2.82 ± 0.23 | -1.43 ± 0.2
CACUAGCAAUAUUACGAGUG | -3.45 ± 0.2 | -2.73 ± 0.22
CACUAGCAAUAUUACGAUUC | -3.02 ± 0.23 | -1.14 ± 0.26
CACUAGCAAUAUUACGCAUG | -1.95 ± 0.13 | -1.75 ± 0.21
CACUAGCAAUAUUACGCUCG | -0.657 ± 0.073 | 0.214 ± 0.089
CACUAGCAAUAUUACGGAAG | -0.706 ± 0.088 | -0.266 ± 0.097
CACUAGCAAUAUUACGGAUA | -2.41 ± 0.28 | -2.22 ± 0.28
CACUAGCAAUAUUACGGCAC | -2.4 ± 0.11 | -1.53 ± 0.18
CACUAGCAAUAUUACGGGGG | -2.43 ± 0.18 | -1.5 ± 0.17
CACUAGCAAUAUUACGGGGU | -3.32 ± 0.19 | -2.37 ± 0.2
CACUAGCAAUAUUACGUGCA | -2.44 ± 0.17 | -1.99 ± 0.23
CACUAGCAAUAUUACGUGCG | -2.13 ± 0.081 | -0.945 ± 0.082
CACUAGCAAUAUUACGUUCU | -3.24 ± 0.17 | -1.39 ± 0.14
CAGAAGCAAUAUUACGACCA | -0.857 ± 0.24 | 
CAGAAGCAAUAUUACGACGA | -1.52 ± 0.18 | -0.939 ± 0.17
CAGAAGCAAUAUUACGAGAA |  | -2.3 ± 0.35
CAGAAGCAAUAUUACGAGAC | -1.15 ± 0.3 | -1.38 ± 0.28
CAGAAGCAAUAUUACGAGCG | -0.175 ± 0.068 | 0.538 ± 0.086
CAGAAGCAAUAUUACGAGUC | -3.79 ± 0.48 | -2.16 ± 0.32
CAGAAGCAAUAUUACGAUCA | -2.19 ± 0.14 | -1.84 ± 0.17
CAGAAGCAAUAUUACGCAGG | -2.75 ± 0.15 | -1.73 ± 0.13
CAGAAGCAAUAUUACGCCAA | -3.35 ± 0.38 | 
